The text below walks through data of patent publication US20170240595 (published 2017).

What all share (experiment): competition
Test [1] has as its target T1, hMC3-R (human, UniProt P41968).
Test [2] concerns the target T2, hMC1-R (human, UniProt Q01726).
In test [3] the target is T3, hMC5-R (human, UniProt P33032).
For test [4], the target named is T4, hMC4-R (human, UniProt P32245).
Test [5] addresses T4, hMC4-R. This is another data set of the same source.
Test [6] deals with T3, hMC5-R. This is another data set of the same source.
In test [7] the target is T2, hMC1-R. The source holds these as a separate data set.
Test [8] deals with T1, hMC3-R. The source holds these as a separate data set.

Where two headings read alike, the source gives them in different places. Bridges are numbered along the chain shown (N, C = ends). Where no end group is shown, it is not given here. [ ]: non-standard residue; d: D form. Bip = N[C@@H](Cc1ccc(-c2ccccc2)cc1)C(=O)O; 2Nal = N[C@@H](Cc1ccc2ccccc2c1)C(=O)O; d2Nal = N[C@H](Cc1ccc2ccccc2c1)C(=O)O; hArg = N=C(N)NCCCC[C@H](N)C(=O)O; 3Pal = N[C@@H](Cc1cccnc1)C(=O)O; Pen = CC(C)(S)[C@H](N)C(=O)O; Nle = CCCC[C@H](N)C(=O)O; Bal = not defined here; GABA = NCCCC(=O)O; βAla = NCCC(=O)O

T4 sequence (P32245 whole entry): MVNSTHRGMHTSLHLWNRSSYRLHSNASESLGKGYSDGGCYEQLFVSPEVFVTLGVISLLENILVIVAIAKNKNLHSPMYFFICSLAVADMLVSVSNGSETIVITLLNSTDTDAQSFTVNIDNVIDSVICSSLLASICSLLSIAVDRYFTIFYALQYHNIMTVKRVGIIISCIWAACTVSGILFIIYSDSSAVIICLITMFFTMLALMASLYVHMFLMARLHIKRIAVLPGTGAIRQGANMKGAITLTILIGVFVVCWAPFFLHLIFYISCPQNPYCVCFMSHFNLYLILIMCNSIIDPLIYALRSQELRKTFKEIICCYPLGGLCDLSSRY
T1 sequence (P41968 whole entry): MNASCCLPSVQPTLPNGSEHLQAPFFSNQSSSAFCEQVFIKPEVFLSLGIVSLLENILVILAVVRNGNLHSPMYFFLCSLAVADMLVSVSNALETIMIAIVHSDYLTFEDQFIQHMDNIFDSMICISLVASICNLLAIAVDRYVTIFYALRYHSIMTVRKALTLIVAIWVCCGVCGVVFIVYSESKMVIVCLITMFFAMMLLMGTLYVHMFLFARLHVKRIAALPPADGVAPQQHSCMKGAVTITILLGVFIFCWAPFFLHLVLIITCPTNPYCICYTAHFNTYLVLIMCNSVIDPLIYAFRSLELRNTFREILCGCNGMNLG
T2 sequence (Q01726 whole entry): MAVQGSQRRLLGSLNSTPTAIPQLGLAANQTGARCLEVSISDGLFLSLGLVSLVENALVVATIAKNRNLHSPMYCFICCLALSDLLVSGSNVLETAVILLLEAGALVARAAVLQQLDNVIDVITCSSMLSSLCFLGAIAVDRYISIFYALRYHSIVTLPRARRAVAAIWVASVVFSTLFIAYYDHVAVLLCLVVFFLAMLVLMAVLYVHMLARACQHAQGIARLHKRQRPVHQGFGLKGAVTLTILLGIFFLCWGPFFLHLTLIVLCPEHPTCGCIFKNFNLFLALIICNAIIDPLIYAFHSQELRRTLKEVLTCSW
T3 sequence (P33032 whole entry): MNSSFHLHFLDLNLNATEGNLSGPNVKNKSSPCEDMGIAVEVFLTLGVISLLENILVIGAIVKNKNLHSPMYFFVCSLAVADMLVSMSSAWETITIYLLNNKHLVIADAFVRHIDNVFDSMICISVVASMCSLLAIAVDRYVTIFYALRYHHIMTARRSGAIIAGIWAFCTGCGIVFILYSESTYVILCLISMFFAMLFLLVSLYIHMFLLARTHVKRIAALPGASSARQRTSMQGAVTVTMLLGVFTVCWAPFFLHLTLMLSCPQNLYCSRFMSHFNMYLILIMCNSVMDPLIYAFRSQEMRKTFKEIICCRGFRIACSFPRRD

B1: D-Phe-c(Cys-His-D-Phe-Arg-Bip-β-Ala-D-Cys)-Thr-NH2 (peptide)
chain: [dF]CH[dF]R[Bip][βAla][dC]T-NH2
modifications: disulfide 2-8 (inferred)
B1: the Ki in the test with hMC3-R [1] was 3370 nM; with hMC1-R [2], 5.8 nM; in the test with hMC5-R [3], 1130 nM; with hMC4-R [4] it was 583 nM.

B2: Ac-Nle-c(Cys-3-Pal-D-Phe-Arg-Trp-Gaba-Cys)-NH2 (peptide)
chain: Ac-[Nle]C[3Pal][dF]RW[GABA]C-NH2
modifications: disulfide 2-8
With B2, the inhibition constant Ki in the test with hMC3-R [1] amounted to 151 nM; in the test with hMC1-R [2], 21.1 nM; in the test with hMC5-R [3], 92.6 nM.

B3: Ac-D-Arg-c(Cys-His-D-Phe-Arg-Trp-Gaba-Pen)-NH2 (peptide)
chain: Ac-[dR]CH[dF]RW[GABA][Pen]-NH2
modifications: disulfide 2-8
SMILES: CC(=O)N[C@H](CCCNC(=N)N)C(=O)N[C@H]1CSSC(C)(C)[C@@H](C(N)=O)NC(=O)CCCNC(=O)[C@H](Cc2c[nH]c3ccccc23)NC(=O)[C@H](CCCNC(=N)N)NC(=O)[C@@H](Cc2ccccc2)NC(=O)[C@H](Cc2c[nH]cn2)NC1=O
On to B3, for which the inhibitory constant (Ki) was 11 nM with hMC4-R [5], 538 nM in the test with hMC5-R [6], 3.93 nM with hMC1-R [7] and 172 nM in the test with hMC3-R [8].

B4: Ac-Nle-c(Asp-D-Ala-His-D-Phe-Arg-Bal-Lys)-NH2 (peptide)
chain: Ac-[Nle]D[dA]H[dF]R[Bal]K-NH2
modifications: lactam 2-8; reading uncertain
As to B4, the Ki came out at 445 nM in the test with hMC3-R [1], 4.12 nM with hMC1-R [2], 4300 nM with hMC5-R [3] and 50.6 nM in the test with hMC4-R [4].

B5: D-Phe-c(Cys-His-D-(Et)Tyr-hArg-Trp-β-Ala-D-Cys)-Thr-NH2 (peptide)
chain: [dF]CH[d(Et)Tyr][hArg]W[βAla][dC]T-NH2
modifications: disulfide 2-8 (inferred)
The molecule B5 returned a Ki with hMC4-R [4] of 14.7 nM.

B6: Ac-Nle-c(Asp-His-D-2-Nal-Arg-Trp-Ala-Lys)-NH2 (peptide)
chain: Ac-[Nle]DH[d2Nal]RWAK-NH2
modifications: lactam 2-8
B6 showed a Ki with hMC1-R [2] of 1.17 nM.

B7: Ac-Nle-c(Asp-D-Ala-His-D-Phe-Arg-Bal-Ala-Lys)-NH2 (peptide)
chain: Ac-[Nle]D[dA]H[dF]R[Bal]AK-NH2
modifications: lactam 2-9; reading uncertain
In the case of B7, the Ki was determined as 4.89 nM with hMC1-R [2], 11.1 nM in the test with hMC5-R [3] and 21.3 nM in the test with hMC4-R [4].

B8: Ac-Nle-c(Asp-D-Ala-His-D-Phe-Arg-Trp-Lys)-NH2 (peptide)
chain: Ac-[Nle]D[dA]H[dF]RWK-NH2
modifications: lactam 2-8
SMILES: CCCC[C@H](NC(C)=O)C(=O)N[C@H]1CC(=O)NCCCC[C@@H](C(N)=O)NC(=O)[C@H](Cc2c[nH]c3ccccc23)NC(=O)[C@H](CCCNC(=N)N)NC(=O)[C@@H](Cc2ccccc2)NC(=O)[C@H](Cc2c[nH]cn2)NC(=O)[C@@H](C)NC1=O
For the molecule B8, the Ki was 98.9 nM with hMC3-R [1], 0.659 nM with hMC1-R [2], 4.19 nM in the test with hMC5-R [3] and 2.55 nM with hMC4-R [4].

B9: Ac-Arg-c(Cys-His-D-Phe-Arg-Trp-Gaba-Pen)-NH2 (peptide)
chain: Ac-RCH[dF]RW[GABA][Pen]-NH2
modifications: disulfide 2-8
SMILES: CC(=O)N[C@@H](CCCNC(=N)N)C(=O)N[C@H]1CSSC(C)(C)[C@@H](C(N)=O)NC(=O)CCCNC(=O)[C@H](Cc2c[nH]c3ccccc23)NC(=O)[C@H](CCCNC(=N)N)NC(=O)[C@@H](Cc2ccccc2)NC(=O)[C@H](Cc2c[nH]cn2)NC1=O
B9: the Ki in the test with hMC4-R [5] worked out at 4.57 nM; with hMC5-R [6], 502 nM; with hMC1-R [7] it was 1.81 nM; in the test with hMC3-R [8] it was 20.5 nM.

B10: Ac-c(Cys-Glu-His-D-Phe-Arg-2-Nal-Ala-Cys)-NH2 (peptide)
chain: CEHXRXAC
modifications: cyclic, D-residues
Regarding B10, the Ki stood at 262 nM in the test with hMC1-R [2] and 1460 nM in the test with hMC5-R [3].

B11: Ac-Nle-c(Cys-D-Ala-His-D-Phe-Arg-Trp-Gly-Cys)-NH2 (peptide)
chain: Ac-[Nle]C[dA]H[dF]RWGC-NH2
modifications: disulfide 2-9
SMILES: CCCC[C@H](NC(C)=O)C(=O)N[C@H]1CSSC[C@@H](C(N)=O)NC(=O)CNC(=O)[C@H](Cc2c[nH]c3ccccc23)NC(=O)[C@H](CCCNC(=N)N)NC(=O)[C@@H](Cc2ccccc2)NC(=O)[C@H](Cc2c[nH]cn2)NC(=O)[C@@H](C)NC1=O
With B11, the values for the Ki with hMC3-R [1], in the test with hMC5-R [3] and with hMC4-R [4] were 149 nM, 339 nM and 3.01 nM, respectively.

B12: Ac-c(Cys-D-Ala-His-D-Phe-Arg-2-Nal-Ala-Cys)-NH2 (peptide)
chain: Ac-C[dA]H[dF]R[2Nal]AC-NH2
modifications: disulfide 1-8 (inferred)
B12: the Ki was 4560 nM with hMC3-R [1], 132 nM with hMC1-R [2] and 8810 nM with hMC5-R [3].
